Experimental data taken from the RNAGym collection of RNA variant scans (doi:10.7554/elife.80360).

B1: Hammerhead Ribozyme (parent)
chain: ACCGGAUGUGCUUUCCGGUCUGAUGAGUCCGUGAGGACGAAACAG

Variants of: B1
Test: self-cleavage, relative activity (ratio to wild type); higher = more cleavage; co-transcriptional

Variant	self-cleavage
U14G C30U	0.552
U14G C30A	0.924
U14G C30G	0.721
U14G U19G	0.422
U14G U19A	0.383
U14G U19C	0.715
U14G G33A	0.518
U14G G33U	0.678
U14G G33C	0.528
U14G A40C	0.52
U14G A40U	0.356
U14G A40G	0.366
C15A A23G	0.428
C15A A23C	0.307
C15A A23U	0.276
U14G G27U	0.515
U14G G27A	0.757
U14G G27C	0.618
U14G G31A	0.929
U14G G31C	0.967
U14G G31U	0.51
U14G C29A	0.677
U14G C29U	0.625
U14G C29G	0.737

Variant	self-cleavage
U14G A42G	0.381
U14G A42U	0.268
U14G A42C	0.382
U14G C20G	0.297
U14G C20U	0.393
U14G C20A	0.481
U14G C16G	0.476
U14G C16A	0.642
U14G C16U	0.849
U14C G39U	0.294
U14C G39A	0.349
U14C G39C	0.337
U14C U19G	0.334
U14C U19C	0.398
U14C U19A	0.362
U14G U21A	0.741
U14G U21C	0.812
U14G U21G	0.572
U14C G25A	0.305
U14C G25U	0.32
U14C G25C	0.228
U14C U32A	0.825
U14C U32G	0.546
U14C U32C	0.61

Variant	self-cleavage
C15A A34U	0.879
C15A A34G	0.96
C15A A34C	1.09
U14G G39A	0.305
U14G G39U	0.359
U14G G39C	0.41
U14C U24A	0.726
U14C U24G	0.816
U14C U24C	0.889
U14G C38U	0.796
U14G C38A	0.435
U14G C38G	0.603
U14G A26G	0.223
U14G A26U	0.569
U14G A26C	0.764
U14G G36U	0.565
U14G G36A	0.729
U14G G36C	0.377
U14C U21A	0.347
U14C U21G	0.319
U14C U21C	0.504
U14G G17C	0.27
U14G G17A	0.544
U14G G17U	0.485

Variant	self-cleavage
U14G G22A	0.314
U14G G22C	0.301
U14G G22U	0.394
U14C G27C	0.54
U14C G27U	0.331
U14C G27A	0.602
U14C C20G	0.301
U14C C20U	0.457
U14C G35C	0.499
U14C G35A	0.565
U14C G35U	0.761
U14G G18C	0.533
U14G G18U	0.522
U14G G18A	0.54
U14G U24G	0.575
U14G U24C	0.611
U14G U24A	1.03
U14C G45U	0.485
U14C G45A	0.472
U14C G45C	0.441
C15A	0.93
U14G C15A	0.659
U14G C15U	0.581
U14G C15G	0.771

Variant	self-cleavage
U14G G25U	0.28
U14G G25A	0.315
U14G G25C	0.315
U14G C43G	0.416
U14G C43U	0.547
U14G C43A	0.304
U14C G33A	0.754
U14C G33C	0.851
U14C G33U	1.09
U14G A37U	0.566
U14G A37G	0.782
U14G A37C	0.777
U14G U32G	1.01
U14G U32C	0.653
U14G U32A	0.811
U14C U28A	0.501
U14C U28C	0.706
U14C U28G	0.544
U14C G31U	1.05
U14C G31A	0.918
U14C G31C	0.816
C15A A26U	0.446
C15A A26C	0.437
C15A A26G	0.248

Variant	self-cleavage
U14G A34U	0.782
U14G A34C	0.875
U14G A34G	0.652
U14C G18U	0.413
U14C G18A	0.409
U14C G18C	0.351
U14C C38A	0.532
U14C C38G	0.489
U14C C38U	1.15
U14G A44C	0.681
U14G A44U	0.609
U14G A44G	1.32
U14G A41C	0.34
U14G A41G	0.3
U14G A41U	0.367
U14G	0.77
U14G U28A	0.796
U14G U28C	0.602
U14G U28G	0.585
U14G A23C	0.36
U14G A23G	0.248
U14G A23U	0.256
U14C G17A	0.494
U14C G17C	0.342

Variant	self-cleavage
U14C G17U	0.561
U14C G36C	0.31
U14C G36U	0.455
U14C G36A	0.552
U14G G45C	0.879
U14G G45U	0.776
U14G G45A	0.708
U14C C29U	0.709
U14C C29A	0.461
U14C C29G	0.497
U14C G22A	0.32
U14C G22U	0.33
U14C G22C	0.294
U14C C43A	0.279
U14C C43G	0.309
U14C C43U	0.337
C15A A37C	0.403
U14C C30A	0.7
U14C C30U	0.613
U14C C30G	0.65
U14G G35U	0.611
U14G G35C	0.509
U14G G35A	0.725
